Experimental data from article PMC3197643 (2011).

B1: V5-tagged full-length OX1R [mouse] / Myc-tagged Dynlt1 [mouse] (parent complex)
chain 1: MEPSATPGAQPGVPTSSGEPFHLPPDYEDEFLRYLWRDYLYPKQYEWVLIAAYVAVFLIALVGNTLVCLAVWRNHHMRTVTNYFIVNLSLADVLVTAICLPASLLVDITESWLFGQALCKVIPYLQAVSVSVAVLTLSFIALDRWYAICHPLLFKSTARRARGSILGIWAVSLAVMVPQAAVMECSSVLPELANRTRLFSVCDEHWADELYPKIYHSCFFIVTYLAPLGLMAMAYFQIFRKLWGRQIPGTTSALVRNWKRPSEQLEAQHQGLCTEPQPRARAFLAEVKQMRARRKTAKMLMVVLLVFALCYLPISVLNVLKRVFGMFRQASDREAVYACFTFSHWLVYANSAANPIIYNFLSGKFREQFKAAFSCCLPGLGPGSSARHKSLSLQSRCSVSKVSEHVVLTTVTTVLS
chain 2: MEDFQASEETAFVVDEVSSIVKEAIESAIGGNAYQHSKVNQWTTNVLEQTLSQLTKLGRPFKYIVTCVIMQKNGAGLHSASSCFWDSSTDGSCTVRWENKTMYCIVSTFGLSI

Variants of: B1
Assay: co-IP, quantification of Western blotting bands; parent: 100; read off a plot

Row | Variant | percent of parent [% vs OX1R wild-type]
1 | chain 1 MEPSATPGAQPGVPTSSGEPFHLPPDYEDEFLRYLWRDYLYPKQYEWVLIAAYVAVFLIALVGNTLVCLAVWRNHHMRTVTNYFIVNLSLADVLVTAICLPASLLVDITESWLFGQALCKVIPYLQAVSVSVAVLTLSFIALDRWYAICHPLLFKSTARRARGSILGIWAVSLAVMVPQAAVMECSSVLPELANRTRLFSVCDEHWADELYPKIYHSCFFIVTYLAPLGLMAMAYFQIFRKLWGRQIPGTTSALVRNWKRPSEQLEAQHQGLCTEPQPRARAFLAEVKQMRARRKTAKMLMVVLLVFALCYLPISVLNVLKRVFGMFRQASDREAVYACFTFSHWLVYANSAANPIIYNFLSGKFREQFKAAFSCCLPGLGPGSSARHKSLSLQSRCSVSKVSEHVVLATVATVLS [chain 1 T409A, chain 1 T412A] | ~28
